This series is described as follows: Stability of the radiopharmaceutical composition: radiochemical purity by radio-TLC over time from EoP. It counts as physicochemical. As to conditions: Tris pH 8.0, sodium ascorbate formulation. Here is the method: Upon reaction completion, the mixture was directly cooled down with formulation solution (123.7 mg/mL sodium ascorbate buffer) to yield a 20 mL [^225Ac]Ac-DOTA-satoreotide stock solution. Reaction completion is referred to as the “end-of-production” (EoP) time, or t=0 h as used in the following results.
This was determined by radio TLC as set out below.
Radio-TLC was performed at T=0 h and at various time points subsequent to the radiolabeling procedure. To run the procedure, 5 μL of reaction solution was spotted on a TLC plate (RP-C18 silica glass plates) at about 1.5 cm from bottom edge. The TLC plate was developed using a mobile phase mixture of ammonium acetate 25% and methanol (40:60 Vol.-%) with an elution length of about 5-6 cm. The TLC plate was dried and measured on a phosphor imager (Perkin Elmer Cyclone Plus Storage Phosphor system) once secular equilibrium of ^225Ac and ^221Fr/^213Bi was reached (>6 hours after development). Free Ac(III) stays at the origin while ^225Ac-DOTA-Satoreotide travels with the eluent front.
In FIG. 1, “T=Xh, read Yh” means that a sample was taken and developed at T=Xh but analyzed Yh after development of the TLC plate, to account for equilibrium of the daughters.

[^225Ac]Ac-DOTA-satoreotide: the radiochemical purity amounted to 95.8% (after 168 hours (from EoP) at ambient temperatures) and 98.9% (at 96 h from EoP).

For the origin of these results see US20250375541A1, “RADIOPHARMACEUTICAL COMPOSITION AND METHODS” (Ariceum Therapeutics GmbH, priority 2024, published 2025).
